Experimental data published in patent US8734776B2 (ZymoGenetics, Inc., priority 2003, dated 2014).

How the values were obtained:
[1] = system: encephelomyocarditis virus; assay: Antiviral assay: cytopathic effect in L929 cells; assay type: cell-based, mouse
[2] = system: IL-28RA mRNA; assay: Semi-quantitative RT-PCR of IL-28RA, IFNAR2 and CRF2-4 mRNA; assay type: cell-based, human; conditions: HepG2 cells + cytokine
Method: In order to further examine the mRNA distribution for IL-28RA, semi-quantitative RT-PCR was performed using the SDS 7900HT system (Applied Biosystems, CA). One-step RT-PCR was performed using 100 ng total RNA for each sample and gene-specific primers. A standard curve was generated for each primer set using Bjab RNA and all sample values were normalized to HPRT. The normalized values for IFNAR2 and CRF2-4 are also shown.

[3] = system: west nile virus; assay type: cell-based; conditions: Vero cells
[4] = system: west nile virus; assay type: cell-based; conditions: Vero cells; remark: listed apart in the source
[5] = system: adenoviral vector, AdGFP; assay: Adenoviral (AdGFP) liver pathology in mice; assay type: in vivo, mouse; conditions: C57Bl/6 mice
Method: When injected intravenously, these viruses primarily target the liver for gene expression. The adenoviruses are replication deficient, but cause liver damage due to inflammatory cell infiltrate that can be monitored by measurement of serum levels of liver enzymes like AST and ALT, or by direct examination of liver pathology.
C57B116 mice were given once daily intraperitoneal injections of 50 μg mouse IL-28 (zcyto24 as shown in SEQ ID NO:8) or metIL-29C172S—PEG for 3 days. Control animals were injected with PBS. One hour following the 3rd dose, mice were given a single bolus intravenous tail vein injection of the adenoviral vector, AdGFP (1×10^9 plaque-forming units (pfu)). Following this, every other day mice were given an additional dose of PBS, mouse IL-28 or metIL-29C172S—PEG for 4 more doses (total of 7 doses). One hour following the final dose of PBS, mouse IL-28 or metIL-29C172S—PEG mice were terminally bleed and sacrificed. The serum and liver tissue were analyzed. Serum was analyzed for AST and ALT liver enzymes. Liver was isolated and analyzed for GFP expression and histology. For histology, liver specimens were fixed in formalin and then embedded in paraffin followed by H&E staining. Sections of liver that had been blinded to treat were examined with a light microscope. Changes were noted and scored on a scale designed to measure liver pathology and inflammation.

[6] = system: adenovirus; assay type: cell-based; conditions: A549 cells
[7] = system: parainfluenza virus; assay type: cell-based; conditions: MA-104 cells

B1: IL-29: human IL-29, previously designated zcyto21, SEQ ID NO:4 (protein, listed as Homo sapiens)
chain: MAAAWTVVLVTLVLGLAVAGPVPTSKPTTTGKGCHIGRFKSLSPQELASFKKARDALEESLKLKNWSCSSPVFPGNWDLRLLQVRERPVALEAELALTLKVLEAAAGPALEDVLDQPLHTLHHILSQLQACIQPQPTAGPRPRGRLHHWLHRLQEAPKKESAGCLEASVTFNLFRLLTRDLKYVADGNLCLRTSTHPEST
modifications: SIGNAL (1)...(19)
Percentage Cytopathic Effect ([1]; relative CM conc. .008X): 87%
Percentage Cytopathic Effect ([1]; relative CM conc. .0156X): 87%
Percentage Cytopathic Effect ([1]; relative CM conc. .0325X): 87%
Percentage Cytopathic Effect ([1]; relative CM conc. .0625X): 87%
Percentage Cytopathic Effect ([1]; relative CM conc. .125X): 87%
Percentage Cytopathic Effect ([1]; relative CM conc. .25X): 87%
Percentage Cytopathic Effect ([1]; relative CM conc. .5X): 87%
CRF2-4 mRNA normalized to HPRT [2]: 3.01
IFNAR2 mRNA normalized to HPRT [2]: 2.53
IL-28RA mRNA normalized to HPRT [2]: 2.28
EC50 NR [3]: 0.00025 µg/mL
IC50 NR [3]: >10 µg/mL
EC50 Visual [4]: 0.032 ng/mL
IC50 Visual [4]: >10 µg/mL
liver histology: liver and inflammation scores versus PBS-treated group [5]: lower liver and inflammation scores
liver histology: sinusoidal cells, mitotic figures, hepatocyte changes versus PBS treatment group [5]: less proliferation of sinusoidal cells, fewer mitotic figures and fewer changes in the hepatocytes
average serum AST ([5]; 50 μg i.p., 7 doses, n=8): 162 U/L
serum ALT ([5]; 50 μg i.p., 7 doses, n=8): 184 U/L
EC50 Visual [6]: >10 µg/mL
IC50 Visual [6]: >10 µg/mL
EC50 NR [7]: >10 µg/mL
IC50 NR [7]: >10 µg/mL
